Residue numbers refer to the chain shown, from its start.
B1: FC120 (antibody, V domains shown)
VH: EVQLLESGAEVKKPGASVKVSCKASGYTFTSYYMHWVRQAPGQGLEWMGIINPSGGSTSYAQKFQGRVTMTRDTSTSTVYMELSSLRSEDTAVYYCARGGGHALDIWGQGTMVTVSS
VL: QSVLTQPPSVSGAPGQKVTISCSGSSSNIGNNYVSWYQQLPGTAPKLLIYDNNKRPSGIPDRFSGSKSGTSATLGITGLQTGDEADYYCGTWDSSLSAWVFGGGTKLTVL
B2: FC05 (antibody, V domains shown)
VH: VQLLEQSGAEVKKPGASVRVSCKVSGYTLPEVAMHWVRQAPGKGLEWMGGFDPEDGETMYAQKFQGRVTMTEDTSTDTAYMELSSLRSEDTAVYYCATTTPFSSSYWFDPWGQGTLVTVSS
VL: B1 VL with P7A, W99V
B3: FC01 (antibody, V domains shown)
VH: EVQLLESGTEVKKPGSSVKVSCKASGGTFSSYAISWVRQAPGQGLEWMGGIIPILGIANYAQKFQGRVTITADKSTSTAYMELSSLRSEDTAVYYCARERGYSGYGAAYYFDYWGQGTLVTVSS
VL: QSVLTQAPSVSGAPGQSVTISCTGSSSNIGAGYDVHWYQQLPGTAPKLLIYGNNNRPSGVPDRFSGSKSGTSASLAITGLQAEDEADYYCQSYDSSLSKGVFGGGTKLTVL
B4: FC07 (antibody, V domains shown)
VH: EVQLLESGGGLVQPGGSLRLSCAASGFTFGSYAMSWVRQAPGKGLEWVSSISGSGGSTYYADSAKGRFTISRDNSKNTLYLQMNSLRAEDTAVYYCAKSPNYDILTGYYNWAGYYFDYWGQGTLVTVSS
VL: DIELTQSPGTLSLSPGDRATLSCRASRGVSSNSLAWYRQRPGESPRLVISGASTRATGIPERFSGSGSGTDFSLSISRLQPEDFAVYYCQQYGSFPFTFGPGTTVDV
B5: FC06 (antibody, V domains shown)
VH: EVQLLESGGGVVQPGRSLRLSCAASGFTFSSYAMHWVRQAPGEGLEWVAVISYDGSNKYYADSVKGRFTISRDNSKNTLYLQMNSLRAGDTAVYYCARLNYYGSGFYYRLGDDYWGQGTLVTVSS
VL: DIELTQSPSSLSASEGDRVTITCRASQGIRNDLGWYQQKPGKAPKRLIYGAPSLQSGVPSRFSGSGSGTEFTLTISTLQPEDSATYYCLQHNKYPWTFGQGTKVEIK
B6: FC08 (antibody, V domains shown)
VH: QLLQQSGAEVKKPGSSVKVSCKASGGTFSSYAISWVRQAPGQGLEWMGGIIPIIGIANYAQKFQGRVTITADKSTSTAYMELSSLRSEDTAVYYCARERGYSGYGAAYYFDYWGQGTLVTVSS
VL: SVLTQPPSVSGAPGQRVTISCTGSSSNIGAGYDVHWYQQLPGTAPKLLIYGNSNRPSGVPDRFSGSKSGTSASLAITGLQAEDEADYYCQSYDSSLSGSVFGGGTKLTVL
B7: FC118 (antibody, V domains shown)
VH: EVQLLESGGGVVQPGRSLRLSCAASGFTFSSYAMHWVRQAPGKGLEWVAVISYDGSNKYYADSVKGRFTISRDNSKNTLYLQMNSLRAEDTAVYYCARARGGSYLYGMDVWGQGAMVTVSS
VL: DIELTQSPSSLAASVGDTVTITCRASQTIGKYLTWYQKKPGRAPDLLIYAASRLQSGVPSRFSGRASGTEFTLTISSLQPEDFATYFCQHTYRTLSFGPGTKVDLK
B8: FC122 (antibody, V domains shown)
VH: B7 VH with V50L, S56I, K65N, N77Y, R100H, G101R, L105Y, A115T
VL: DIELTQSPSSLSASVGDSVTITCRGSQIISRYLNWYQQKPGKAPKLLIYAASTLQSGVPSRFSGSGSGTEFTLSISSLEPEDFATYYCQQSYAIPYTFGQGTRLEI
B9: FC124 (antibody, V domains shown)
VH: B7 VH with V50L, S56I, K65N, N77Y, R100H, G101R, L105Y, A115T
VL: DIELTQSPGTLSLSPGERATLYCRASQSVSSSYLAWYQQKPGQAPRLLIYGAFGRAAGIPDRFRGSGSGTQFTLTISRLEPEDSAVYFCQQYGQSPLYSFGQGTKLEIK
B10: FC11 (antibody, V domains shown)
VH: EVQLLESGGGVVQPGRSLRLSCAASGFTFSYYGMHWVRQAPGTGLEWVAVISYDGSNEYYADSVKGRFTISRDNSKNTLYLQMNSLRAEDTAVYYCAKAMFLGDSSGLTGLDMDVWGQGTTVTVSS
VL: DIELTQSPGTLSLSPGERATLSCRASQSVSSYLAWYQQKPGQAPRLLIYDASNRATGIPARFSGSGSGTDFTLTISSLEPEDFALYYCQQRGNWPPTFGGGTKLEIK

What was measured:
Assay in all cases: SPR
[1] = biological target: SARS-CoV-2 S2 (recombinant) (SARS-CoV-2)
[2] = biological target: SARS-CoV-2 NTD (recombinant, limits not stated) (SARS-CoV-2)
[3] = biological target: SARS-CoV-2 RBD (recombinant, limits not stated) (SARS-CoV-2, UniProt P0DTC2 333-526)

Binder | Kd [1] [nM] | Kd [2] [nM] | Kd [3] [nM]
B1 | 21.8 | – | –
B2 | – | 4.32 | –
B3 | – | – | 0.628
B4 | – | 63.4 | –
B5 | – | 7.49 | –
B6 | – | – | 0.298
B7 | 41.1 | – | –
B8 | 9.44 | – | –
B9 | 38.6 | – | –
B10 | – | – | 5.24

From paper PMC8083607 (2021)
